# Laboratory results published in patent EP4680727A2 (dated 2026).
# B1: 1D3DgC (1D3 anti-murine CD19 scFv fused to DogCatcher; IL-2 signal sequence-1D3 scFv-(G4S)3-DgC-6xHis) (scFv)
# scFv: DIQMTQSPASLSTSLGETVTIQCQASEDIYSGLAWYQQKPGKSPQLLIYGASDLQDGVPSRFSGSGSGTQYSLKITSMQTEDEGVYFCQQGLTYPRTFGGGTKLELKGGGGSGGGGSGGGGSEVQLQQSGAELVRPGTSVKLSCKVSGDTITFYYMHFVKQRPGQGLEWIGRIDPEDESTKYSEKFKNKATLTADTSSNTAYLKLSSLTSEDTATYFCIYGGYYFDYWGQGVMVTVSSGGGGSGGGGSGGGGSAMKLGEIEFIKVDKTDKKPLRGAVFSLQKQHPDYPDIYGAIDQNGTYQDVRTGEDGKLTFTNLSDGKYRLIENSEPPGYKPVQNKPIVSFRIVDGEVRDVTSIVPQGSSGSHHHHHH
# notes: also called lD3DgC; 1D3 scFv-DogCatcher
# B2: YTS169DgC (YTS169 anti-murine CD8a scFv fused to DogCatcher; IGHV1-46 signal sequence-YTS169 scFv-(G4S)3-DgC-6xHis) (scFv)
# scFv: EVKLQESGGGLVQPGRSLKLSCAASGFNFNDYWMGWVRQAPGKGLEWIGEINKDSSTINYTPSLKDKFTISRDNAQNTLYLQMSKLGSEDTAIYYCARARGMMVLIIPHYFDYWGQGVMVTVSSGGGGSGGGGSGGGGSDIVLTQSPAMAMSPGERITISCRASESVSTRMHWYQQKPGQQPKLLIYGASNLESGVPARFSGSGSGTDFTLTIDPVEANDTATYFCQQSWYDPWTFGGGTKLELKGGGGSGGGGSGGGGSAMKLGEIEFIKVDKTDKKPLRGAVFSLQKQHPDYPDIYGAIDQNGTYQDVRTGEDGKLTFTNLSDGKYRLIENSEPPGYKPVQNKPIVSFRIVDGEVRDVTSIVPQGSSGSHHHHHH
# notes: also called YTS169 scFv-DogCatcher; anti-mCD8 YTS169
# B3: 2.43DgC (2.43 scFv fused to DogCatcher; IGHV1-46 signal sequence-2.43 scFv-(G4S)3-DgC-6xHis) (scFv)
# scFv: EVQLVESGGGLVQPGRSLKLSCAASGFTFSNYYMAWVRQAPTKGLEWVAYINTGGGTTYYRDSVKGRFTISRDDAKSTLYLQMDSLRSEDTATYYCTTAIGYYFDYWGQGVMVTVSSGGGGSGGGGSGGGGSDIQLTQSPASLSASLGETVSIECLASEDIYSYLAWYQQKPGKSPQVLIYAANRLQDGVPSRFSGSGSGTQYSLKISGMQPEDEGDYFCLQGSKFPYTFGAGTKLELKGGGGSGGGGSGGGGSAMKLGEIEFIKVDKTDKKPLRGAVFSLQKQHPDYPDIYGAIDQNGTYQDVRTGEDGKLTFTNLSDGKYRLIENSEPPGYKPVQNKPIVSFRIVDGEVRDVTSIVPQGSSGSHHHHHH
# notes: also called 2.43 scFv-DogCatcher
# B4: 18B12DgC (18B12 anti-murine CD20 scFv fused to DogCatcher; IL-2 signal sequence-18B12 scFV-(G4S)3-DgC-6xHis) (scFv)
# scFv: QVQLQQPGAELVRPGTSVKLSCKASGYTFTSYWMHWIKQRPGQGLEWIGVIDPSDNYTKYNQKFKGKATLTVDTSSSTAYMQLSSLTSEDSAVYFCAREGYYGSSPWFAYWGQGTLVTVSSGGGGSGGGGSGGGGSQIVMSQSPAILSASPGEKVTMTCRARSSVSYIHWYQQKPGSSPKPWIYATSNLASGVPGRFSGSGSGTSYSLTITRVEAEDAATYYCQQWSSKPPTFGGGTKLEIKGGGGSGGGGSGGGGSAMKLGEIEFIKVDKTDKKPLRGAVFSLQKQHPDYPDIYGAIDQNGTYQDVRTGEDGKLTFTNLSDGKYRLIENSEPPGYKPVQNKPIVSFRIVDGEVRDVTSIVPQGSSGSHHHHHH
# notes: also called 18B12 scFv-DogCatcher
# B5: FMC63 scFv-DogCatcher fusion (anti-human CD19; IL-2 signal sequence-FMC63 scFv-(G4S)3-DgC-6xHis) (scFv)
# scFv: DIQMTQTTSSLSASLGDRVTISCRASQDISKYLNWYQQKPDGTVKLLIYHTSRLHSGVPSRFSGSGSGTDYSLTISNLEQEDIATYFCQQGNTLPYTFGGGTKLEITGGGGSGGGGSGGGGSEVKLQESGPGLVAPSQSLSVTCTVSGVSLPDYGVSWIRQPPRKGLEWLGVIWGSETTYYNSALKSRLTIIKDNSKSQVFLKMNSLQTDDTAIYYCAKHYYYGGSYAMDYWGQGTSVTVSSGGGGSGGGGSGGGGSAMKLGEIEFIKVDKTDKKPLRGAVFSLQKQHPDYPDIYGAIDQNGTYQDVRTGEDGKLTFTNLSDGKYRLIENSEPPGYKPVQNKPIVSFRIVDGEVRDVTSIVPQGSSGSHHHHHH
# notes: also called FMC163DgC (plasmid name as printed)
# B6: DogCatcher (bacterially produced, 6xHis-TEV-DogCatcher) (other)
# chain: MSYYHHHHHHDYDIPTTENLYFQGAMKLGEIEFIKVDKTDKKPLRGAVFSLQKQHPDYPDIYGAIDQNGTYQDVRTGEDGKLTFTNLSDGKYRLIENSEPPGYKPVQNKPIVSFRIVDGEVRDVTSIVPQ
# notes: also called DgC; pDEST14-DogCatcher product
# How the values were obtained:
# murine CD19 = target: T1, murine CD19 (mouse, UniProt P25918 19-547); assay: cell-based or functional assay
# T1 sequence: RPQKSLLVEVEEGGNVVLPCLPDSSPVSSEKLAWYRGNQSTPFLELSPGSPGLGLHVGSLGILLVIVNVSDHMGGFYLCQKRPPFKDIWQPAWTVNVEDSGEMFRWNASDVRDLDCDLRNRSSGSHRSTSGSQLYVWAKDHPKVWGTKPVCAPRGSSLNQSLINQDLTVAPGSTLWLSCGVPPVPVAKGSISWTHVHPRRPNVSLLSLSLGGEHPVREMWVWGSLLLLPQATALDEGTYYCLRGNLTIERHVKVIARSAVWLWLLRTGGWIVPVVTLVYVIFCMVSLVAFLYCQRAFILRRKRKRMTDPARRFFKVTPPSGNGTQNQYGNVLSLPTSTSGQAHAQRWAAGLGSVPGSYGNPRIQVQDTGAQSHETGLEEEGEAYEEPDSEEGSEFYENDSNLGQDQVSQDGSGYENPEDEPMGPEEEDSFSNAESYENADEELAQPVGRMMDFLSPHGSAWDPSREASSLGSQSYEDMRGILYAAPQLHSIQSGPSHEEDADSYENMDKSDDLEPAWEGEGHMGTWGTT
# [1] = target: T2, Ad5FDgT fiber (Human Adenovirus 5 fiber with DogTag inserted at the HI loop domain of the fiber knob) (Human Adenovirus 5); assay: covalent DogCatcher/DogTag conjugation to the virus capsid
# T2 chain: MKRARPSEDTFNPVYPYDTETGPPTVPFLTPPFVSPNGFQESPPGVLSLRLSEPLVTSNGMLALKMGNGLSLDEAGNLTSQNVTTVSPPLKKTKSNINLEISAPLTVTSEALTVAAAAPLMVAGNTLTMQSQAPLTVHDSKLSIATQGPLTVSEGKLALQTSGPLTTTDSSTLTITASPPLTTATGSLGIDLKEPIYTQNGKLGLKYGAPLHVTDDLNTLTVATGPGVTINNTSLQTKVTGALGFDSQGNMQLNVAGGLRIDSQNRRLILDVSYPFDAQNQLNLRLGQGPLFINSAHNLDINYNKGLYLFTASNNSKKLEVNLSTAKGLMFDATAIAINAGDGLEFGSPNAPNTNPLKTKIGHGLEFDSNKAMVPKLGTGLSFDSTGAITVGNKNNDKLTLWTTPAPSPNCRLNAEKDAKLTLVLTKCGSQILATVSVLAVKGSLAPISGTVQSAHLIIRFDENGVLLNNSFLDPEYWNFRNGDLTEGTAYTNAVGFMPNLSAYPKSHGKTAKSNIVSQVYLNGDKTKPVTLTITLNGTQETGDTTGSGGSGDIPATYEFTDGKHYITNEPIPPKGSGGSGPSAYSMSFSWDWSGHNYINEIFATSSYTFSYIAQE
# murine CD8a [2] = target: T3, murine CD8a (mouse, UniProt P01731 28-247); assay: cell-based or functional assay
# [3] = target: T2, Ad5FDgT fiber (Human Adenovirus 5 fiber …); assay: SDS-PAGE (complete shift of the fiber-DogTag band) and western blot against the fiber tail, purified Ad-Ab complexes
# murine CD8a [4] = target: T3, murine CD8a; assay: flow cytometry on murine splenocytes, gated on CD8+, detected with anti-His Tag antibody
# [5] = target: T2, Ad5FDgT fiber (Human Adenovirus 5 fiber …); assay: SDS-PAGE gel shift of the fiber band after co-incubation at room temperature
# T3 sequence (P01731 28-247): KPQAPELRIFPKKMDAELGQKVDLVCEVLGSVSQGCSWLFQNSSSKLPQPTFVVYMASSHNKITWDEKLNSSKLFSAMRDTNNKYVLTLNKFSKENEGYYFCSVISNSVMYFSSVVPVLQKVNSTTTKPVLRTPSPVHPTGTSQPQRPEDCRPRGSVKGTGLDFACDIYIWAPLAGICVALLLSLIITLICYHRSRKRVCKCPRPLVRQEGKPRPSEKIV
binder,measurement,setting,value
B1,"gene expression in B cells in vivo, against the parent vector",murine CD19,~2 fold
same,binding result,[1],binds
B2,gene expression in CD8a+ T cells in vivo,murine CD8a [2],~2 fold
same,binding result,[3],binds
B3,binding result,murine CD8a [4],binds
B4,binding result,[1],binds
B5,binding result,[1],binds
B6,binding result,[5],binds
